Measured values from patent US20180230200A1 (CITY OF HOPE, published 2018).

What was measured:
[1] = molecular target: T1, gH/gL/UL128/UL130/UL131A pentamer complex expressed from MVA-PC in BHK-21 cells (human cytomegalovirus, UniProt P12824 24-743; P16832 31-278; P16837 28-171; P16772 1-214; F5HET4 19-129); test: FC competition, MVA-PC BHK-21; unlabelled row Ab; competitor: biotinylated 13B5
T1 construct: whole, on cells

[2] = molecular target: T1, gH/gL/UL128/UL130/UL131A pentamer …; test: FC competition, MVA-PC BHK-21; unlabelled row Ab; competitor: biotinylated 12E2
[3] = molecular target: T1, gH/gL/UL128/UL130/UL131A pentamer …; test: FC competition, MVA-PC BHK-21; unlabelled row Ab; competitor: biotinylated 54E11
[4] = molecular target: gH/gL/UL128/UL130/UL131A pentamer complex (PC) of HCMV strain TR virus (human cytomegalovirus strain TR); test: cell-based or functional assay
[5] = molecular target: gH/gL/UL128/UL130/UL131A pentamer complex (PC) of HCMV strain TB40/E virus (human cytomegalovirus strain TB40/E); test: cell-based or functional assay
[6] = molecular target: T1, gH/gL/UL128/UL130/UL131A pentamer …; test: FC competition, MVA-PC BHK-21; unlabelled row Ab; competitor: biotinylated 18F10
[7] = molecular target: T2, gH expressed from MVA in BHK-21 cells (human cytomegalovirus, UniProt P12824 24-743); test: intracellular FC, MVA-infected BHK-21
T2 construct: whole, on cells

[8] = molecular target: T3, UL131A expressed from MVA in BHK-21 cells (human cytomegalovirus, UniProt F5HET4 19-129); test: intracellular FC, MVA-infected BHK-21
T3 construct: whole, on cells

[9] = molecular target: T4, UL128 expressed from MVA in BHK-21 cells (human cytomegalovirus, UniProt P16837 28-171); test: intracellular FC, MVA-infected BHK-21
T4 construct: whole, on cells
T4 sequence: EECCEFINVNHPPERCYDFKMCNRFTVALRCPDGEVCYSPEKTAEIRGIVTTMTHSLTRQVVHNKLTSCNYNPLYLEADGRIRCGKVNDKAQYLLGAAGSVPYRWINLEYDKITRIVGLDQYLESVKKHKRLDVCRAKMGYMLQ

[10] = molecular target: T5, UL128/UL131A co-expressed from MVA in BHK-21 cells (human cytomegalovirus, UniProt P16837 28-171; F5HET4 19-129); test: intracellular FC, MVA-infected BHK-21
T5 construct: whole, on cells

[11] = molecular target: T6, gH/gL/UL128 co-expressed from MVA in BHK-21 cells (human cytomegalovirus, UniProt P12824 24-743; P16832 31-278; P16837 28-171); test: intracellular FC, MVA-infected BHK-21
T6 construct: whole, on cells

[12] = molecular target: T7, gH/gL/UL128/UL131A co-expressed from MVA in BHK-21 cells (human cytomegalovirus, UniProt P12824 24-743; P16832 31-278; P16837 28-171; F5HET4 19-129); test: intracellular FC, MVA-infected BHK-21
T7 construct: whole, on cells

[13] = molecular target: T8, gH/gL/UL128/UL130 co-expressed from MVA in BHK-21 cells (human cytomegalovirus, UniProt P12824 24-743; P16832 31-278; P16837 28-171; P16772 1-214); test: intracellular FC, MVA-infected BHK-21
T8 construct: whole, on cells

[14] = molecular target: T9, gH/gL/UL130/UL131A co-expressed from MVA in BHK-21 cells (human cytomegalovirus, UniProt P12824 24-743; P16832 31-278; P16772 1-214; F5HET4 19-129); test: intracellular FC, MVA-infected BHK-21
T9 construct: whole, on cells

[15] = molecular target: T10, gH/gL/UL131A co-expressed from MVA in BHK-21 cells (human cytomegalovirus, UniProt P12824 24-743; P16832 31-278; F5HET4 19-129); test: intracellular FC, MVA-infected BHK-21
T10 construct: whole, on cells

[16] = molecular target: T11, UL130 expressed from MVA in BHK-21 cells (human cytomegalovirus, UniProt P16772 1-214); test: intracellular FC, MVA-infected BHK-21
T11 construct: whole, on cells

[17] = molecular target: T12, UL130/UL131A co-expressed from MVA in BHK-21 cells (human cytomegalovirus, UniProt P16772 1-214; F5HET4 19-129); test: intracellular FC, MVA-infected BHK-21
T12 construct: whole, on cells

[18] = molecular target: T13, gH/gL/UL130 co-expressed from MVA in BHK-21 cells (human cytomegalovirus, UniProt P12824 24-743; P16832 31-278; P16772 1-214); test: intracellular FC, MVA-infected BHK-21
T13 construct: whole, on cells

[19] = molecular target: T14, UL128/UL130 co-expressed from MVA in BHK-21 cells (human cytomegalovirus, UniProt P16837 28-171; P16772 1-214); test: intracellular FC, MVA-infected BHK-21
T14 construct: whole, on cells

[20] = molecular target: T15, gH/gL co-expressed from MVA in BHK-21 cells (human cytomegalovirus, UniProt P12824 24-743; P16832 31-278); test: intracellular FC, MVA-infected BHK-21
T15 construct: whole, on cells

[21] = molecular target: T1, gH/gL/UL128/UL130/UL131A pentamer …; test: FC competition, MVA-PC BHK-21; unlabelled row Ab; competitor: biotinylated 1B2
[22] = molecular target: T1, gH/gL/UL128/UL130/UL131A pentamer …; test: FC, biotinylated NAb titrated on MVA-PC-infected BHK-21 (cell surface PC)
[23] = molecular target: T1, gH/gL/UL128/UL130/UL131A pentamer …; test: FC competition, MVA-PC BHK-21; unlabelled row Ab; competitor: biotinylated 21F6

B1: 1B2 (antibody, V domains shown)
VH: EVQLVESGGVLVKPGGSLKLSCAASGFTFSDYYMYWVRQTPEKRLEWVATISDDGNYTNYPDSVKGRFTISRDNAKNNLYLQMSSLKSEDTAMYYCARGWLLPVFAYWGQGTLVTVSA
VL: DIVLTQSPATLSVTPGDSVSLSCRASQSIGNNLHWYQQKSHESPRLLIKYTSQSISGIPSRFSGSGSGTDFTLNINSVETEDFGVYFCQQSNRWPWTFGGGTKLEIK
notes: also called NAb 1B2
B1 was tested, and the “Binding Inhibition (%)” value [1] was 0%, the “Binding Inhibition (%)” value [2] was 100% and the “Binding Inhibition (%)” value [3] was 0%. The “IC50, inhibition of TR cell-to-cell spread in ARPE-19” value [4] was 1.4 µg/mL, the “IC50, neutralization of TR infection of ARPE-19” value [4] was 0.0003 µg/mL and the “IC50, neutralization of TR infection of HUVEC” value (“IC50 … of TR infection of HUVEC” for short) [4] was 0.0007 µg/mL. For the same binder, the “IC50, neutralization of TR infection of MRC-5” value (“IC50 … of TR infection of MRC-5” below) [4] was over 25 µg/mL, the “IC50, inhibition of TB40/E cell-to-cell spread in ARPE-19” value [5] was 1 µg/mL and the “IC50, neutralization of TB40/E infection of ARPE-19” value [5] was 0.0006 µg/mL. For the same binder, the “IC50, neutralization of TB40/E infection of CTB” value [5] was 0.0126 µg/mL, the “IC50, neutralization of TB40/E infection of HUVEC” value [5] was 0.0005 µg/mL and the “IC50, neutralization of TB40/E infection of MRC-5” value [5] was over 25 µg/mL. For the same binder, the “Binding Inhibition (%)” value [6] was 0%, the binding result [7] was “no binding” and the binding result [8] was “no binding”. B1: no binding [9]; no binding [10]; no binding [11]. B1: no binding [12]; no binding [13]; no binding [14]. B1: no binding [15]; no binding [16]; no binding [17]. B1: no binding [18]; no binding [19]; no binding [20]. The “Binding Inhibition (%)” value [21] was 100%, the EC50 [22] was 0.32 nM and the “Binding Inhibition (%)” value [23] was 0%.

B2: 4A3 (antibody, V domains shown)
VH: QVQLQQPGPELVRPGASVKLSCKASGYTFTIYWMNWVKQRPGQGLEWIGMIDPSDSETHYNQMFKDKATLTVDKSSSTAYMQLSSLTSEDSAVYYCASSGTGAYWGQGTLLTVSA
VL: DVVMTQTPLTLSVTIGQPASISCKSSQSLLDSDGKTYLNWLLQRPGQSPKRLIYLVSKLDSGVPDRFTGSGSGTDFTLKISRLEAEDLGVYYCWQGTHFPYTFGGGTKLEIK
notes: also called NAb 4A3
For B2, the “IC50, neutralization of TR infection of ARPE-19” value [4] was 0.0446 µg/mL, the “IC50 … of TR infection of HUVEC” value [4] was 0.0102 µg/mL and the “IC50 … of TR infection of MRC-5” value [4] was over 25 µg/mL. The “IC50, neutralization of TB40/E infection of ARPE-19” value [5] was 0.0802 µg/mL, the “IC50, neutralization of TB40/E infection of HUVEC” value [5] was 0.0464 µg/mL and the “IC50, neutralization of TB40/E infection of MRC-5” value [5] was over 25 µg/mL. B2: no binding [7]; no binding [8]; no binding [9]. B2: no binding [10]; no binding [11]; no binding [12]. B2: no binding [13]; no binding [14]; no binding [15]. B2: no binding [16]; no binding [17]; no binding [18]. B2: no binding [19]; no binding [20].

B3: 12E2 (antibody, V domains shown)
VH: EVKLVESGGGLVQPGGSLKLSCATSGFTFSDYYMFWVRQTPEKKLEWVAYISNGGGSTYYPDTVKGRFTISRDNDKNTLYLQMSRLKSDDTALYYCVRPKRDFQYLYAMDYWGQGTSVTVSS
VL: DIVLTQSPASLAVSLGQRATISCRASKSVSTSGYSYMHWYQQKPGQSPKLLIYLASNLESGVPARFSGSGSGTDFTLNIHPVEDEDAATYYCQHSRELPWTFGGGTKLEIK
notes: also called NAb 12E2
With B3 the “Binding Inhibition (%)” value [1] was 0%, the “Binding Inhibition (%)” value [2] was 100% and the “Binding Inhibition (%)” value [3] was 0%. The “IC50, inhibition of TR cell-to-cell spread in ARPE-19” value [4] was 17 µg/mL, the “IC50, neutralization of TR infection of ARPE-19” value [4] was 0.0031 µg/mL and the “IC50 … of TR infection of HUVEC” value [4] was 0.0042 µg/mL. For the same binder, the “IC50 … of TR infection of MRC-5” value [4] was over 25 µg/mL, the “IC50, inhibition of TB40/E cell-to-cell spread in ARPE-19” value [5] was 15 µg/mL and the “IC50, neutralization of TB40/E infection of ARPE-19” value [5] was 0.0037 µg/mL. For the same binder, the “IC50, neutralization of TB40/E infection of CTB” value [5] was 0.0721 µg/mL, the “IC50, neutralization of TB40/E infection of HUVEC” value [5] was 0.006 µg/mL and the “IC50, neutralization of TB40/E infection of MRC-5” value [5] was over 25 µg/mL. For the same binder, the “Binding Inhibition (%)” value [6] was 0%, the binding result [7] was “no binding” and the binding result [8] was “no binding”. B3: no binding [9]; no binding [10]; no binding [11]. B3: no binding [12]; no binding [13]; no binding [14]. B3: no binding [15]; no binding [16]; no binding [17]. B3: no binding [18]; no binding [19]; no binding [20]. The “Binding Inhibition (%)” value [21] was 100%, the EC50 [22] was 1.1 nM and the “Binding Inhibition (%)” value [23] was 0%.
